Data taken from publication PMC4164519.

Target: Neu4 with a C-terminal TAP (SBP/CBP) tag expressed in COS 7 cells (human) (UniProt Q8WWR8)
Assay: SEC; FPLC size exclusion chromatography of the purified enzyme; apparent mass

stoichiometry N: 2
Substance: Neu4 with a C-terminal TAP (SBP/CBP) tag expressed in COS 7 cells (from UniProt Q8WWR8 1-484) (enzyme)
